In article PMC4252739 (Cell host & microbe, 2014):

Tests used:
[1] = biological target: HIV-1 CA A14C/E45C cross-linked tubular assemblies (HIV-1); assay: co-sedimentation
[2] = biological target: the molecule itself; assay: SEC
[3] = biological target: the molecule itself; assay: SEC; remark: listed apart in the source

Binder | binding specificity (percent of input co-pelleted, background corrected) [1] [%] | other results
MxB_(84YRGK) (6xHis-MxB residues 84-715 with YRGK487-490AAAA) (domain or fragment) GPENNLYSQYEQKVRPCIDLIDSLRALGVEQDLALPAIAVIGDQSSGKSSVLEALSGVALPRGSGIVTRCPLVLKLKKQPCEAWAGRISYRNTELELQDPGQVEKEIHKAQNVMAGNGRGISHELISLEITSPEVPDLTIIDLPGITRVAVDNQPRDIGLQIKALIKKYIQRQQTINLVVVPCNVDIATTEALSMAHEVDPEGDRTIGILTKPDLMDRGTEKSVMNVVRNLTYPLKKGYMIVKCRGQQEITNRLSLAEATKKEITFFQTHPYFRVLLEEGSATVPRLAERLTTELIMHIQKSLPLLEGQIRESHQKATEELRRCGADIPSQEADKMFFLIEKIKMFNQDIEKLVEGEEVVRENETRLYNKIREDFKNWVGILATNTQKVKNIIHEEVEKYEKQAAAAELLGFVNYKTFEIIVHQYIQQLVEPALSMLQKAMEIIQQAFINVAKKHFGEFFNLNQTVQSTIEDIKVKHTAKAENMIQLQFRMEQMVFCQDQIYSVVLKKVREEIFNPLGTPSQNMKLNSHFPSNESSVSSFTEIGIHLNAYFLETSKRLANQIPFIIQYFMLRENGDSLQKAMMQILQEKNRYSWLLQEQSETATKRRILKERIYRLTQARHALCQFSSKEIH |  | percent co-sedimented with CA [1]: 9%
MxB_(84YRGK/M574D) (domain or fragment, UniProt P20592 84-715, looked up) GPENNLYSQYEQKVRPCIDLIDSLRALGVEQDLALPAIAVIGDQSSGKSSVLEALSGVALPRGSGIVTRCPLVLKLKKQPCEAWAGRISYRNTELELQDPGQVEKEIHKAQNVMAGNGRGISHELISLEITSPEVPDLTIIDLPGITRVAVDNQPRDIGLQIKALIKKYIQRQQTINLVVVPCNVDIATTEALSMAHEVDPEGDRTIGILTKPDLMDRGTEKSVMNVVRNLTYPLKKGYMIVKCRGQQEITNRLSLAEATKKEITFFQTHPYFRVLLEEGSATVPRLAERLTTELIMHIQKSLPLLEGQIRESHQKATEELRRCGADIPSQEADKMFFLIEKIKMFNQDIEKLVEGEEVVRENETRLYNKIREDFKNWVGILATNTQKVKNIIHEEVEKYEKQAAAAELLGFVNYKTFEIIVHQYIQQLVEPALSMLQKAMEIIQQAFINVAKKHFGEFFNLNQTVQSTIEDIKVKHTAKAENMIQLQFRDEQMVFCQDQIYSVVLKKVREEIFNPLGTPSQNMKLNSHFPSNESSVSSFTEIGIHLNAYFLETSKRLANQIPFIIQYFMLRENGDSLQKAMMQILQEKNRYSWLLQEQSETATKRRILKERIYRLTQARHALCQFSSKEIH |  | binding result [2]: binds
MxB-HA K663D (natural protein) MSKAHKPWPYRRRSQFSSRKYLKKEMNSFQQQPPPFGTVPPQMMFPPNWQGAEKDAAFLAKDFNFLTLNNQPPPGNRSQPRAMGPENNLYSQYEQKVRPCIDLIDSLRALGVEQDLALPAIAVIGDQSSGKSSVLEALSGVALPRGSGIVTRCPLVLKLKKQPCEAWAGRISYRNTELELQDPGQVEKEIHKAQNVMAGNGRGISHELISLEITSPEVPDLTIIDLPGITRVAVDNQPRDIGLQIKALIKKYIQRQQTINLVVVPCNVDIATTEALSMAHEVDPEGDRTIGILTKPDLMDRGTEKSVMNVVRNLTYPLKKGYMIVKCRGQQEITNRLSLAEATKKEITFFQTHPYFRVLLEEGSATVPRLAERLTTELIMHIQKSLPLLEGQIRESHQKATEELRRCGADIPSQEADKMFFLIEKIKMFNQDIEKLVEGEEVVRENETRLYNKIREDFKNWVGILATNTQKVKNIIHEEVEKYEKQYRGKELLGFVNYKTFEIIVHQYIQQLVEPALSMLQKAMEIIQQAFINVAKKHFGEFFNLNQTVQSTIEDIKVKHTAKAENMIQLQFRMEQMVFCQDQIYSVVLKKVREEIFNPLGTPSQNMKLNSHFPSNESSVSSFTEIGIHLNAYFLETSKRLANQIPFIIQYFMLRENGDSLQDAMMQILQEKNRYSWLLQEQSETATKRRILKERIYRLTQARHALCQFSSKEIH | 27 | 
MxB-HA E681A (natural protein) MSKAHKPWPYRRRSQFSSRKYLKKEMNSFQQQPPPFGTVPPQMMFPPNWQGAEKDAAFLAKDFNFLTLNNQPPPGNRSQPRAMGPENNLYSQYEQKVRPCIDLIDSLRALGVEQDLALPAIAVIGDQSSGKSSVLEALSGVALPRGSGIVTRCPLVLKLKKQPCEAWAGRISYRNTELELQDPGQVEKEIHKAQNVMAGNGRGISHELISLEITSPEVPDLTIIDLPGITRVAVDNQPRDIGLQIKALIKKYIQRQQTINLVVVPCNVDIATTEALSMAHEVDPEGDRTIGILTKPDLMDRGTEKSVMNVVRNLTYPLKKGYMIVKCRGQQEITNRLSLAEATKKEITFFQTHPYFRVLLEEGSATVPRLAERLTTELIMHIQKSLPLLEGQIRESHQKATEELRRCGADIPSQEADKMFFLIEKIKMFNQDIEKLVEGEEVVRENETRLYNKIREDFKNWVGILATNTQKVKNIIHEEVEKYEKQYRGKELLGFVNYKTFEIIVHQYIQQLVEPALSMLQKAMEIIQQAFINVAKKHFGEFFNLNQTVQSTIEDIKVKHTAKAENMIQLQFRMEQMVFCQDQIYSVVLKKVREEIFNPLGTPSQNMKLNSHFPSNESSVSSFTEIGIHLNAYFLETSKRLANQIPFIIQYFMLRENGDSLQKAMMQILQEKNRYSWLLQAQSETATKRRILKERIYRLTQARHALCQFSSKEIH | 9.8 | 
MxB-HA M666D (natural protein) MSKAHKPWPYRRRSQFSSRKYLKKEMNSFQQQPPPFGTVPPQMMFPPNWQGAEKDAAFLAKDFNFLTLNNQPPPGNRSQPRAMGPENNLYSQYEQKVRPCIDLIDSLRALGVEQDLALPAIAVIGDQSSGKSSVLEALSGVALPRGSGIVTRCPLVLKLKKQPCEAWAGRISYRNTELELQDPGQVEKEIHKAQNVMAGNGRGISHELISLEITSPEVPDLTIIDLPGITRVAVDNQPRDIGLQIKALIKKYIQRQQTINLVVVPCNVDIATTEALSMAHEVDPEGDRTIGILTKPDLMDRGTEKSVMNVVRNLTYPLKKGYMIVKCRGQQEITNRLSLAEATKKEITFFQTHPYFRVLLEEGSATVPRLAERLTTELIMHIQKSLPLLEGQIRESHQKATEELRRCGADIPSQEADKMFFLIEKIKMFNQDIEKLVEGEEVVRENETRLYNKIREDFKNWVGILATNTQKVKNIIHEEVEKYEKQYRGKELLGFVNYKTFEIIVHQYIQQLVEPALSMLQKAMEIIQQAFINVAKKHFGEFFNLNQTVQSTIEDIKVKHTAKAENMIQLQFRMEQMVFCQDQIYSVVLKKVREEIFNPLGTPSQNMKLNSHFPSNESSVSSFTEIGIHLNAYFLETSKRLANQIPFIIQYFMLRENGDSLQKAMDQILQEKNRYSWLLQEQSETATKRRILKERIYRLTQARHALCQFSSKEIH | 26 | 
MxB-HA Y651D (natural protein) MSKAHKPWPYRRRSQFSSRKYLKKEMNSFQQQPPPFGTVPPQMMFPPNWQGAEKDAAFLAKDFNFLTLNNQPPPGNRSQPRAMGPENNLYSQYEQKVRPCIDLIDSLRALGVEQDLALPAIAVIGDQSSGKSSVLEALSGVALPRGSGIVTRCPLVLKLKKQPCEAWAGRISYRNTELELQDPGQVEKEIHKAQNVMAGNGRGISHELISLEITSPEVPDLTIIDLPGITRVAVDNQPRDIGLQIKALIKKYIQRQQTINLVVVPCNVDIATTEALSMAHEVDPEGDRTIGILTKPDLMDRGTEKSVMNVVRNLTYPLKKGYMIVKCRGQQEITNRLSLAEATKKEITFFQTHPYFRVLLEEGSATVPRLAERLTTELIMHIQKSLPLLEGQIRESHQKATEELRRCGADIPSQEADKMFFLIEKIKMFNQDIEKLVEGEEVVRENETRLYNKIREDFKNWVGILATNTQKVKNIIHEEVEKYEKQYRGKELLGFVNYKTFEIIVHQYIQQLVEPALSMLQKAMEIIQQAFINVAKKHFGEFFNLNQTVQSTIEDIKVKHTAKAENMIQLQFRMEQMVFCQDQIYSVVLKKVREEIFNPLGTPSQNMKLNSHFPSNESSVSSFTEIGIHLNAYFLETSKRLANQIPFIIQDFMLRENGDSLQKAMMQILQEKNRYSWLLQEQSETATKRRILKERIYRLTQARHALCQFSSKEIH | < 0.1 | 
MBP-MxB_(1-715 IK/DD) (natural protein, UniProt P20592 1-715, looked up) MSKAHKPWPYRRRSQFSSRKYLKKEMNSFQQQPPPFGTVPPQMMFPPNWQGAEKDAAFLAKDFNFLTLNNQPPPGNRSQPRAMGPENNLYSQYEQKVRPCIDLIDSLRALGVEQDLALPAIAVIGDQSSGKSSVLEALSGVALPRGSGIVTRCPLVLKLKKQPCEAWAGRISYRNTELELQDPGQVEKEIHKAQNVMAGNGRGISHELISLEITSPEVPDLTIIDLPGITRVAVDNQPRDIGLQIKALIKKYIQRQQTINLVVVPCNVDIATTEALSMAHEVDPEGDRTIGILTKPDLMDRGTEKSVMNVVRNLTYPLKKGYMIVKCRGQQEITNRLSLAEATKKEITFFQTHPYFRVLLEEGSATVPRLAERLTTELIMHIQKSLPLLEGQIRESHQKATEELRRCGADIPSQEADKMFFLDEKIKMFNQDIEKLVEGEEVVRENETRLYNKIREDFKNWVGILATNTQKVKNIIHEEVEKYEKQYRGKELLGFVNYKTFEIIVHQYIQQLVEPALSMLQKAMEIIQQAFINVAKKHFGEFFNLNQTVQSTIEDIKVKHTAKAENMIQLQFRMEQMVFCQDQIYSVVLKKVREEIFNPLGTPSQNMKLNSHFPSNESSVSSFTEIGIHLNAYFLETSKRLANQIPFIIQYFMLRENGDSLQDAMMQILQEKNRYSWLLQEQSETATKRRILKERIYRLTQARHALCQFSSKEIH | 40 | stoichiometry N [3]: 2
MBP-MxB_(1-715 IKM/DDD) (natural protein, UniProt P20592 1-715, looked up) MSKAHKPWPYRRRSQFSSRKYLKKEMNSFQQQPPPFGTVPPQMMFPPNWQGAEKDAAFLAKDFNFLTLNNQPPPGNRSQPRAMGPENNLYSQYEQKVRPCIDLIDSLRALGVEQDLALPAIAVIGDQSSGKSSVLEALSGVALPRGSGIVTRCPLVLKLKKQPCEAWAGRISYRNTELELQDPGQVEKEIHKAQNVMAGNGRGISHELISLEITSPEVPDLTIIDLPGITRVAVDNQPRDIGLQIKALIKKYIQRQQTINLVVVPCNVDIATTEALSMAHEVDPEGDRTIGILTKPDLMDRGTEKSVMNVVRNLTYPLKKGYMIVKCRGQQEITNRLSLAEATKKEITFFQTHPYFRVLLEEGSATVPRLAERLTTELIMHIQKSLPLLEGQIRESHQKATEELRRCGADIPSQEADKMFFLDEKIKMFNQDIEKLVEGEEVVRENETRLYNKIREDFKNWVGILATNTQKVKNIIHEEVEKYEKQYRGKELLGFVNYKTFEIIVHQYIQQLVEPALSMLQKAMEIIQQAFINVAKKHFGEFFNLNQTVQSTIEDIKVKHTAKAENMIQLQFRMEQMVFCQDQIYSVVLKKVREEIFNPLGTPSQNMKLNSHFPSNESSVSSFTEIGIHLNAYFLETSKRLANQIPFIIQYFMLRENGDSLQDAMDQILQEKNRYSWLLQEQSETATKRRILKERIYRLTQARHALCQFSSKEIH |  | stoichiometry N [3]: 2
